Results reported in PMC7954794, “Protein context shapes the specificity of SH3 domain-mediated interactions in vivo” (Nature Communications, 2021).

B1: S. cerevisiae Abp1 (full length; SH3 domain 535-592 mutated) / Hua2 (parent)
chain 1: MALEPIDYTTHSREIDAEYLKIVRGSDPDTTWLIISPNAKKEYEPESTGSSFHDFLQLFDETKVQYGLARVSPPGSDVEKIIIIGWCPDSAPLKTRASFAANFAAVANNLFKGYHVQVTARDEDDLDENELLMKISNAAGARYSIQTSSKQQGKASTPPVKKSFTPSKSPAPVSKKEPVKTPSPAPAAKISSRVNDNNDDDDWNEPELKERDFDQAPLKPNQSSYKPIGKIDLQKVIAEEKAKEDPRLVQKPTAAGSKIDPSSDIANLKNESKLKRDSEFNSFLGTTKPPSMTESSLKNDDDKVIKGFRNEKSPAQLWAERKAKQNSGNAETKAEAPKPEVPEDEPEGEPDVKDLKSKFEGLAASEKEEEEMENKFAPPPKKSEPTIISPKPFSKPQEPVKAEEAEQPKTDYKKIGNPLPGMHIEADNEEEPEENDDDWDDDEDEAAQPPLPSRNVASGAPVQKEEPEQEEIAPSLPSRNSIPAPKQEEAPEQAPEEEIEEEAEEAAPQLPSRSSAAPPPPPRRATPEKKPKENPWATAEYDYDAAEDNELTFVENDKIINIEFVDDDWWLGELEKDGSKGLFPSNYVSLGN
chain 2: MQQTKFGKMYLDHDSVVEYSEDEIVEADRITLGYKKRLSMIENQMRHLLEDFSLDVQQIEPILADLQKYYDAFLQLLQKRNKSLQCKRSTHQPVPSPMNSQTSTNAKVNLSGKLMKFQLNSVQKFDEENILRILQNKIEFEHYFQIDKGKKQKVLLLAVYQCLNGPTRLHKVLNIEGIIHNNSIRTILGKQVSSSKWTVFLYDVKLVLLAHRQDVPNLETSKMIVRYGDLFPCALYFKDHTAY

Variants of: B1
Test: DHFR protein-fragment complementation in yeast (Abp1-DHFR F[1,2] x partner-DHFR F[3]), deep mutational scanning, second methotrexate selection vs reference
Conditions: with Hua2; S. cerevisiae, DHFR-PCA selection in liquid with methotrexate at 30 C, two 72 h selections (the score uses the second); reference = the pre-selection culture; not an affinity; value at the no-binding floor (a bound); scale: DMS score: mean over two replicates of log2(f_test/f_ref + 0.5)/ln 2, minus the synonymous-codon median

Row | Variant | screen value
1 | chain 1 MALEPIDYTTHSREIDAEYLKIVRGSDPDTTWLIISPNAKKEYEPESTGSSFHDFLQLFDETKVQYGLARVSPPGSDVEKIIIIGWCPDSAPLKTRASFAANFAAVANNLFKGYHVQVTARDEDDLDENELLMKISNAAGARYSIQTSSKQQGKASTPPVKKSFTPSKSPAPVSKKEPVKTPSPAPAAKISSRVNDNNDDDDWNEPELKERDFDQAPLKPNQSSYKPIGKIDLQKVIAEEKAKEDPRLVQKPTAAGSKIDPSSDIANLKNESKLKRDSEFNSFLGTTKPPSMTESSLKNDDDKVIKGFRNEKSPAQLWAERKAKQNSGNAETKAEAPKPEVPEDEPEGEPDVKDLKSKFEGLAASEKEEEEMENKFAPPPKKSEPTIISPKPFSKPQEPVKAEEAEQPKTDYKKIGNPLPGMHIEADNEEEPEENDDDWDDDEDEAAQPPLPSRNVASGAPVQKEEPEQEEIAPSLPSRNSIPAPKQEEAPEQAPEEEIEEEAEEAAPQLPSRSSAAPPPPPRRATPEKKPKENPWATAEYDYDAAEDNELTFVENDKIINIEFVDDDWWLGELEKDGSKGLKPSNYVSLGN [chain 1 F583K] | < -3.06
2 | chain 1 MALEPIDYTTHSREIDAEYLKIVRGSDPDTTWLIISPNAKKEYEPESTGSSFHDFLQLFDETKVQYGLARVSPPGSDVEKIIIIGWCPDSAPLKTRASFAANFAAVANNLFKGYHVQVTARDEDDLDENELLMKISNAAGARYSIQTSSKQQGKASTPPVKKSFTPSKSPAPVSKKEPVKTPSPAPAAKISSRVNDNNDDDDWNEPELKERDFDQAPLKPNQSSYKPIGKIDLQKVIAEEKAKEDPRLVQKPTAAGSKIDPSSDIANLKNESKLKRDSEFNSFLGTTKPPSMTESSLKNDDDKVIKGFRNEKSPAQLWAERKAKQNSGNAETKAEAPKPEVPEDEPEGEPDVKDLKSKFEGLAASEKEEEEMENKFAPPPKKSEPTIISPKPFSKPQEPVKAEEAEQPKTDYKKIGNPLPGMHIEADNEEEPEENDDDWDDDEDEAAQPPLPSRNVASGAPVQKEEPEQEEIAPSLPSRNSIPAPKQEEAPEQAPEEEIEEEAEEAAPQLPSRSSAAPPPPPRRATPEKKPKENPWATAEYDYDAAEDNELTFVENDKIINIEFVDDDWWLGELEKDGSKGLHPSNYVSLGN [chain 1 F583H] | < -3.06
3 | chain 1 MALEPIDYTTHSREIDAEYLKIVRGSDPDTTWLIISPNAKKEYEPESTGSSFHDFLQLFDETKVQYGLARVSPPGSDVEKIIIIGWCPDSAPLKTRASFAANFAAVANNLFKGYHVQVTARDEDDLDENELLMKISNAAGARYSIQTSSKQQGKASTPPVKKSFTPSKSPAPVSKKEPVKTPSPAPAAKISSRVNDNNDDDDWNEPELKERDFDQAPLKPNQSSYKPIGKIDLQKVIAEEKAKEDPRLVQKPTAAGSKIDPSSDIANLKNESKLKRDSEFNSFLGTTKPPSMTESSLKNDDDKVIKGFRNEKSPAQLWAERKAKQNSGNAETKAEAPKPEVPEDEPEGEPDVKDLKSKFEGLAASEKEEEEMENKFAPPPKKSEPTIISPKPFSKPQEPVKAEEAEQPKTDYKKIGNPLPGMHIEADNEEEPEENDDDWDDDEDEAAQPPLPSRNVASGAPVQKEEPEQEEIAPSLPSRNSIPAPKQEEAPEQAPEEEIEEEAEEAAPQLPSRSSAAPPPPPRRATPEKKPKENPWATAEYDYDAAEDNELTFVENDKIINIEFVDDDWWLGELEKDGSKGLDPSNYVSLGN [chain 1 F583D] | < -3.06
4 | chain 1 MALEPIDYTTHSREIDAEYLKIVRGSDPDTTWLIISPNAKKEYEPESTGSSFHDFLQLFDETKVQYGLARVSPPGSDVEKIIIIGWCPDSAPLKTRASFAANFAAVANNLFKGYHVQVTARDEDDLDENELLMKISNAAGARYSIQTSSKQQGKASTPPVKKSFTPSKSPAPVSKKEPVKTPSPAPAAKISSRVNDNNDDDDWNEPELKERDFDQAPLKPNQSSYKPIGKIDLQKVIAEEKAKEDPRLVQKPTAAGSKIDPSSDIANLKNESKLKRDSEFNSFLGTTKPPSMTESSLKNDDDKVIKGFRNEKSPAQLWAERKAKQNSGNAETKAEAPKPEVPEDEPEGEPDVKDLKSKFEGLAASEKEEEEMENKFAPPPKKSEPTIISPKPFSKPQEPVKAEEAEQPKTDYKKIGNPLPGMHIEADNEEEPEENDDDWDDDEDEAAQPPLPSRNVASGAPVQKEEPEQEEIAPSLPSRNSIPAPKQEEAPEQAPEEEIEEEAEEAAPQLPSRSSAAPPPPPRRATPEKKPKENPWATAEYDYDAAEDNELTFVENDKIINIEFVDDDWWLGELEKDGSKGLEPSNYVSLGN [chain 1 F583E] | < -3.06
5 | chain 1 MALEPIDYTTHSREIDAEYLKIVRGSDPDTTWLIISPNAKKEYEPESTGSSFHDFLQLFDETKVQYGLARVSPPGSDVEKIIIIGWCPDSAPLKTRASFAANFAAVANNLFKGYHVQVTARDEDDLDENELLMKISNAAGARYSIQTSSKQQGKASTPPVKKSFTPSKSPAPVSKKEPVKTPSPAPAAKISSRVNDNNDDDDWNEPELKERDFDQAPLKPNQSSYKPIGKIDLQKVIAEEKAKEDPRLVQKPTAAGSKIDPSSDIANLKNESKLKRDSEFNSFLGTTKPPSMTESSLKNDDDKVIKGFRNEKSPAQLWAERKAKQNSGNAETKAEAPKPEVPEDEPEGEPDVKDLKSKFEGLAASEKEEEEMENKFAPPPKKSEPTIISPKPFSKPQEPVKAEEAEQPKTDYKKIGNPLPGMHIEADNEEEPEENDDDWDDDEDEAAQPPLPSRNVASGAPVQKEEPEQEEIAPSLPSRNSIPAPKQEEAPEQAPEEEIEEEAEEAAPQLPSRSSAAPPPPPRRATPEKKPKENPWATAEYDYDAAEDNELTFVENDKIINIEFVDDDWWLGELEKDGSKGLGPSNYVSLGN [chain 1 F583G] | < -3.06

Second part, the variant after the results:

Row | screen value | Variant
6 | < -3.06 | chain 1 MALEPIDYTTHSREIDAEYLKIVRGSDPDTTWLIISPNAKKEYEPESTGSSFHDFLQLFDETKVQYGLARVSPPGSDVEKIIIIGWCPDSAPLKTRASFAANFAAVANNLFKGYHVQVTARDEDDLDENELLMKISNAAGARYSIQTSSKQQGKASTPPVKKSFTPSKSPAPVSKKEPVKTPSPAPAAKISSRVNDNNDDDDWNEPELKERDFDQAPLKPNQSSYKPIGKIDLQKVIAEEKAKEDPRLVQKPTAAGSKIDPSSDIANLKNESKLKRDSEFNSFLGTTKPPSMTESSLKNDDDKVIKGFRNEKSPAQLWAERKAKQNSGNAETKAEAPKPEVPEDEPEGEPDVKDLKSKFEGLAASEKEEEEMENKFAPPPKKSEPTIISPKPFSKPQEPVKAEEAEQPKTDYKKIGNPLPGMHIEADNEEEPEENDDDWDDDEDEAAQPPLPSRNVASGAPVQKEEPEQEEIAPSLPSRNSIPAPKQEEAPEQAPEEEIEEEAEEAAPQLPSRSSAAPPPPPRRATPEKKPKENPWATAEYDYDAAEDNELTFVENDKIINIEFVDDDWWLGELEKDGSKGLMPSNYVSLGN [chain 1 F583M]
7 | < -3.06 | chain 1 MALEPIDYTTHSREIDAEYLKIVRGSDPDTTWLIISPNAKKEYEPESTGSSFHDFLQLFDETKVQYGLARVSPPGSDVEKIIIIGWCPDSAPLKTRASFAANFAAVANNLFKGYHVQVTARDEDDLDENELLMKISNAAGARYSIQTSSKQQGKASTPPVKKSFTPSKSPAPVSKKEPVKTPSPAPAAKISSRVNDNNDDDDWNEPELKERDFDQAPLKPNQSSYKPIGKIDLQKVIAEEKAKEDPRLVQKPTAAGSKIDPSSDIANLKNESKLKRDSEFNSFLGTTKPPSMTESSLKNDDDKVIKGFRNEKSPAQLWAERKAKQNSGNAETKAEAPKPEVPEDEPEGEPDVKDLKSKFEGLAASEKEEEEMENKFAPPPKKSEPTIISPKPFSKPQEPVKAEEAEQPKTDYKKIGNPLPGMHIEADNEEEPEENDDDWDDDEDEAAQPPLPSRNVASGAPVQKEEPEQEEIAPSLPSRNSIPAPKQEEAPEQAPEEEIEEEAEEAAPQLPSRSSAAPPPPPRRATPEKKPKENPWATAEYDYDAAEDNELTFVENDKIINIEFVDDDWWLGELEKDGSKGLQPSNYVSLGN [chain 1 F583Q]
8 | < -3.06 | chain 1 MALEPIDYTTHSREIDAEYLKIVRGSDPDTTWLIISPNAKKEYEPESTGSSFHDFLQLFDETKVQYGLARVSPPGSDVEKIIIIGWCPDSAPLKTRASFAANFAAVANNLFKGYHVQVTARDEDDLDENELLMKISNAAGARYSIQTSSKQQGKASTPPVKKSFTPSKSPAPVSKKEPVKTPSPAPAAKISSRVNDNNDDDDWNEPELKERDFDQAPLKPNQSSYKPIGKIDLQKVIAEEKAKEDPRLVQKPTAAGSKIDPSSDIANLKNESKLKRDSEFNSFLGTTKPPSMTESSLKNDDDKVIKGFRNEKSPAQLWAERKAKQNSGNAETKAEAPKPEVPEDEPEGEPDVKDLKSKFEGLAASEKEEEEMENKFAPPPKKSEPTIISPKPFSKPQEPVKAEEAEQPKTDYKKIGNPLPGMHIEADNEEEPEENDDDWDDDEDEAAQPPLPSRNVASGAPVQKEEPEQEEIAPSLPSRNSIPAPKQEEAPEQAPEEEIEEEAEEAAPQLPSRSSAAPPPPPRRATPEKKPKENPWATAEYDYDAAEDNELTFVENDKIINIEFVDDDWWLGELEKDGSKGLNPSNYVSLGN [chain 1 F583N]
9 | < -3.06 | chain 1 MALEPIDYTTHSREIDAEYLKIVRGSDPDTTWLIISPNAKKEYEPESTGSSFHDFLQLFDETKVQYGLARVSPPGSDVEKIIIIGWCPDSAPLKTRASFAANFAAVANNLFKGYHVQVTARDEDDLDENELLMKISNAAGARYSIQTSSKQQGKASTPPVKKSFTPSKSPAPVSKKEPVKTPSPAPAAKISSRVNDNNDDDDWNEPELKERDFDQAPLKPNQSSYKPIGKIDLQKVIAEEKAKEDPRLVQKPTAAGSKIDPSSDIANLKNESKLKRDSEFNSFLGTTKPPSMTESSLKNDDDKVIKGFRNEKSPAQLWAERKAKQNSGNAETKAEAPKPEVPEDEPEGEPDVKDLKSKFEGLAASEKEEEEMENKFAPPPKKSEPTIISPKPFSKPQEPVKAEEAEQPKTDYKKIGNPLPGMHIEADNEEEPEENDDDWDDDEDEAAQPPLPSRNVASGAPVQKEEPEQEEIAPSLPSRNSIPAPKQEEAPEQAPEEEIEEEAEEAAPQLPSRSSAAPPPPPRRATPEKKPKENPWATAEYDYDAAEDNELTFVENDKIINIEFVDDDWWLGELEKDGSKGLPPSNYVSLGN [chain 1 F583P]
10 | -3.02 | chain 1 MALEPIDYTTHSREIDAEYLKIVRGSDPDTTWLIISPNAKKEYEPESTGSSFHDFLQLFDETKVQYGLARVSPPGSDVEKIIIIGWCPDSAPLKTRASFAANFAAVANNLFKGYHVQVTARDEDDLDENELLMKISNAAGARYSIQTSSKQQGKASTPPVKKSFTPSKSPAPVSKKEPVKTPSPAPAAKISSRVNDNNDDDDWNEPELKERDFDQAPLKPNQSSYKPIGKIDLQKVIAEEKAKEDPRLVQKPTAAGSKIDPSSDIANLKNESKLKRDSEFNSFLGTTKPPSMTESSLKNDDDKVIKGFRNEKSPAQLWAERKAKQNSGNAETKAEAPKPEVPEDEPEGEPDVKDLKSKFEGLAASEKEEEEMENKFAPPPKKSEPTIISPKPFSKPQEPVKAEEAEQPKTDYKKIGNPLPGMHIEADNEEEPEENDDDWDDDEDEAAQPPLPSRNVASGAPVQKEEPEQEEIAPSLPSRNSIPAPKQEEAPEQAPEEEIEEEAEEAAPQLPSRSSAAPPPPPRRATPEKKPKENPWATAEYDYDAAEDNELTFVENDKIINIEFVDDDWWLGELEKDGSKGLRPSNYVSLGN [chain 1 F583R]
